Patent publication US20180155451A1 (published 2018)

T1: FcγRIIa H (human, UniProt P12318 34-217)
T1 construct: extracellular domain; also called FcgRIIa H; FcγRIIa type H; not shown: His tag attached to the C terminus
T1 sequence (looked up): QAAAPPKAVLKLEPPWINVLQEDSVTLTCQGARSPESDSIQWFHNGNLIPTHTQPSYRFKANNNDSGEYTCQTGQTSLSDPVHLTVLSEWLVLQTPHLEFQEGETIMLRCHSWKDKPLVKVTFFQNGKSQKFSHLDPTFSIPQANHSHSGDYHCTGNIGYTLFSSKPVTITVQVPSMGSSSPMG

T2: FcγRIIb (human, UniProt P31994 43-217)
T2 construct: extracellular domain; also called FcgRIIb; 2b; not shown: His tag attached to the C terminus
T2 sequence (looked up): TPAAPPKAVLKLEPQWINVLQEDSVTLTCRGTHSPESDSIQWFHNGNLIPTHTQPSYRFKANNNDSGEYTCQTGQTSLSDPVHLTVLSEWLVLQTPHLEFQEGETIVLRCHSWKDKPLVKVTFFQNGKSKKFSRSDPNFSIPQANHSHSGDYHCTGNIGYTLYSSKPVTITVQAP

T3: FcγRIIb extracellular domain with C-terminal His tag (human, UniProt P31994 43-217)
T3 construct: extracellular domain; also called 2b; FcgRIIb
T3 sequence (looked up): T2 sequence (looked up)

B1: GpH7-A5/GpH7-B3 variant G236_19Q/GpL16-k0 (antibody, human IgG1, kappa)
heavy 1: not shown
heavy 2: not shown
light: DIVMTQSPLSLPVTPGEPASISCQASESLVHSNRNTYLHWYLQKPGQSPQLLIYKVSNRFSGVPDRFSGSGSGTDFTLKISRVEAEDVGVYYCSQNTHVPPTFGQGTKVEIERTVAAPSVFIFPPSDEQLKSGTASVVCLLNNFYPREAKVQWKVDNALQSGNSQESVTEQDSKDSTYSLSSTLTLSKADYEKHKVYACEVTHQGLSSPVTKSFNRGEC
notes: Heterodimerized IgG1, mutation in the GpH7-B3 chain only; also called He Ab
B2: GpH7-A5/GpH7-B3 variant L234_16H/GpL16-k0 (antibody, human IgG1, kappa)
heavy 1: not shown
heavy 2: not shown
light: B1 light
notes: as for B1
B3: GpH7-A5/GpH7-B3 variant L234_13S/GpL16-k0 (antibody, human IgG1, kappa)
heavy 1: not shown
heavy 2: not shown
light: B1 light
notes: as for B1
B4: GpH7-A5/GpH7-B3 variant L234_02A/GpL16-k0 (antibody, human IgG1, kappa)
heavy 1: not shown
heavy 2: not shown
light: B1 light
notes: as for B1
B5: GpH7-A5/GpH7-B3 variant L234_15Y/GpL16-k0 (antibody, human IgG1, kappa)
heavy 1: not shown
heavy 2: not shown
light: B1 light
notes: as for B1
B6: GpH7-A5/GpH7-B3 variant L234_12R/GpL16-k0 (antibody, human IgG1, kappa)
heavy 1: not shown
heavy 2: not shown
light: B1 light
notes: as for B1
B7: GpH7-A5/GpH7-B3 variant L235_18N/GpL16-k0 (antibody, human IgG1, kappa)
heavy 1: not shown
heavy 2: not shown
light: B1 light
notes: as for B1
B8: GpH7-A5/GpH7-B3 variant G236_20W/GpL16-k0 (antibody, human IgG1, kappa)
heavy 1: not shown
heavy 2: not shown
light: B1 light
notes: as for B1
B9: GpH7-A5/GpH7-B3 variant L235_01G/GpL16-k0 (antibody, human IgG1, kappa)
heavy 1: not shown
heavy 2: not shown
light: B1 light
notes: as for B1
B10: GpH7-A5/GpH7-B3 variant L235_13S/GpL16-k0 (antibody, human IgG1, kappa)
heavy 1: not shown
heavy 2: not shown
light: B1 light
notes: as for B1
B11: GpH7-A5/GpH7-B3 variant L235_03V/GpL16-k0 (antibody, human IgG1, kappa)
heavy 1: not shown
heavy 2: not shown
light: B1 light
notes: as for B1
B12: GpH7-A5/GpH7-B3 variant L235_11K/GpL16-k0 (antibody, human IgG1, kappa)
heavy 1: not shown
heavy 2: not shown
light: B1 light
notes: as for B1
B13: GpH7-A5/GpH7-B3 variant L235_14T/GpL16-k0 (antibody, human IgG1, kappa)
heavy 1: not shown
heavy 2: not shown
light: B1 light
notes: as for B1
B14: GpH7-A5/GpH7-B3 variant L234_04F/GpL16-k0 (antibody, human IgG1, kappa)
heavy 1: not shown
heavy 2: not shown
light: B1 light
notes: as for B1
B15: GpH7-A5/GpH7-B3 variant S239_11K/GpL16-k0 (antibody, human IgG1, kappa)
heavy 1: not shown
heavy 2: not shown
light: B1 light
notes: as for B1
B16: GpH7-A5/GpH7-B3 variant L235_19Q/GpL16-k0 (antibody, human IgG1, kappa)
heavy 1: not shown
heavy 2: not shown
light: B1 light
notes: as for B1
B17: GpH7-A5/GpH7-B3 variant L234_11K/GpL16-k0 (antibody, human IgG1, kappa)
heavy 1: not shown
heavy 2: not shown
light: B1 light
notes: as for B1
B18: GpH7-A5/GpH7-B3 variant L234_19Q/GpL16-k0 (antibody, human IgG1, kappa)
heavy 1: not shown
heavy 2: not shown
light: B1 light
notes: as for B1
B19: GpH7-A5/GpH7-B3 variant L234_05P/GpL16-k0 (antibody, human IgG1, kappa)
heavy 1: not shown
heavy 2: not shown
light: B1 light
notes: as for B1
B20: GpH7-A5/GpH7-B3 variant S239_12R/GpL16-k0 (antibody, human IgG1, kappa)
heavy 1: not shown
heavy 2: not shown
light: B1 light
notes: as for B1
B21: GpH7-A5/GpH7-B3 variant L234_14T/GpL16-k0 (antibody, human IgG1, kappa)
heavy 1: not shown
heavy 2: not shown
light: B1 light
notes: as for B1
B22: GpH7-A5/GpH7-B3 variant L234_01G/GpL16-k0 (antibody, human IgG1, kappa)
heavy 1: not shown
heavy 2: not shown
light: B1 light
notes: as for B1
B23: GpH7-A5/GpH7-B3 variant S239_16H/GpL16-k0 (antibody, human IgG1, kappa)
heavy 1: not shown
heavy 2: not shown
light: B1 light
notes: as for B1
B24: GpH7-A5/GpH7-B3 variant E269_01G/GpL16-k0 (antibody, human IgG1, kappa)
heavy 1: not shown
heavy 2: not shown
light: B1 light
notes: He Ab: alteration in one H chain only; also called He Ab
B25: GpH7-A5/GpH7-B3 variant G236_05P/GpL16-k0 (antibody, human IgG1, kappa)
heavy 1: not shown
heavy 2: not shown
light: B1 light
notes: as for B24
B26: GpH7-A5/GpH7-B3 variant L235_12R/GpL16-k0 (antibody, human IgG1, kappa)
heavy 1: not shown
heavy 2: not shown
light: B1 light
notes: as for B24
B27: GpH7-A5/GpH7-B3 variant E269_11K/GpL16-k0 (antibody, human IgG1, kappa)
heavy 1: not shown
heavy 2: not shown
light: B1 light
notes: as for B24
B28: GpH7-A5/GpH7-B3 variant G236_03V/GpL16-k0 (antibody, human IgG1, kappa)
heavy 1: not shown
heavy 2: not shown
light: B1 light
notes: as for B24
B29: GpH7-A5/GpH7-B3 variant E269_08L/GpL16-k0 (antibody, human IgG1, kappa)
heavy 1: not shown
heavy 2: not shown
light: B1 light
notes: as for B24
B30: GpH7-A5/GpH7-B3 variant E269_16H/GpL16-k0 (antibody, human IgG1, kappa)
heavy 1: not shown
heavy 2: not shown
light: B1 light
notes: as for B24
B31: GpH7-A5/GpH7-B3 variant G236_04F/GpL16-k0 (antibody, human IgG1, kappa)
heavy 1: not shown
heavy 2: not shown
light: B1 light
notes: as for B24
B32: GpH7-A5/GpH7-B3 variant E269_02A/GpL16-k0 (antibody, human IgG1, kappa)
heavy 1: not shown
heavy 2: not shown
light: B1 light
notes: as for B24
B33: GpH7-A5/GpH7-B3 variant E269_07I/GpL16-k0 (antibody, human IgG1, kappa)
heavy 1: not shown
heavy 2: not shown
light: B1 light
notes: as for B24
B34: GpH7-A5/GpH7-B3 variant E269_03V/GpL16-k0 (antibody, human IgG1, kappa)
heavy 1: not shown
heavy 2: not shown
light: B1 light
notes: as for B24
B35: GpH7-A5/GpH7-B3 variant E269_12R/GpL16-k0 (antibody, human IgG1, kappa)
heavy 1: not shown
heavy 2: not shown
light: B1 light
notes: as for B24
B36: GpH7-A5/GpH7-B3 variant E269_13S/GpL16-k0 (antibody, human IgG1, kappa)
heavy 1: not shown
heavy 2: not shown
light: B1 light
notes: as for B24
B37: GpH7-A5/GpH7-B3 variant E269_18N/GpL16-k0 (antibody, human IgG1, kappa)
heavy 1: not shown
heavy 2: not shown
light: B1 light
notes: as for B24
B38: GpH7-A5/GpH7-B3 variant E269_06M/GpL16-k0 (antibody, human IgG1, kappa)
heavy 1: not shown
heavy 2: not shown
light: B1 light
notes: as for B24

Molecular target: T1, FcγRIIa H
Experiment: SPR (Biacore), antibody captured, FcγR as analyte; binding relative to GpH7-A5/GpH7-B3/GpL16-k0 = 100

Row | He/Con_2aH | Binder
1 | 89.1 control = 100 | B1
2 | 87.3 control = 100 | B2
3 | 80.4 control = 100 | B3
4 | 81 control = 100 | B4
5 | 120 control = 100 | B5
6 | 47.7 control = 100 | B6
7 | 66.1 control = 100 | B7
8 | 147 control = 100 | B8
9 | 54.1 control = 100 | B9
10 | 66.1 control = 100 | B10
11 | 85.3 control = 100 | B11
12 | 22.7 control = 100 | B12
13 | 71.5 control = 100 | B13
14 | 120 control = 100 | B14
15 | 48.1 control = 100 | B15
16 | 62 control = 100 | B16
17 | 40.8 control = 100 | B17
18 | 79.2 control = 100 | B18
19 | 93.5 control = 100 | B19
20 | 57.1 control = 100 | B20
21 | 78.1 control = 100 | B21
22 | 75.6 control = 100 | B22
23 | 59.4 control = 100 | B23

Molecular target: T2, FcγRIIb
Experiment: as above

Row | He/Con_2b | Binder
24 | 46.6 control = 100 | B1
25 | 59.4 control = 100 | B2
26 | 59.3 control = 100 | B3
27 | 64.9 control = 100 | B4
28 | 96.3 control = 100 | B5
29 | 18.9 control = 100 | B6
30 | 54.9 control = 100 | B7
31 | 58.2 control = 100 | B8
32 | 35.4 control = 100 | B9
33 | 48.2 control = 100 | B10
34 | 66.4 control = 100 | B11
35 | 6.3 control = 100 | B12
36 | 46.8 control = 100 | B13
37 | 99.8 control = 100 | B14
38 | 24.7 control = 100 | B15
39 | 42.6 control = 100 | B16
40 | 16.2 control = 100 | B17
41 | 60.3 control = 100 | B18
42 | 72.9 control = 100 | B19
43 | 39.1 control = 100 | B20
44 | 62.5 control = 100 | B21
45 | 50.7 control = 100 | B22
46 | 49.4 control = 100 | B23

Molecular target: T4, FcγRIIIa extracellular domain with C-terminal His tag (human, UniProt P08637 17-208)
T4 construct: extracellular domain; also called 3a; FcgRIIIa
Experiment: SPR; He/Con_3a over He/Con_2b (FcγRIIb)

T4 sequence (P08637 17-208): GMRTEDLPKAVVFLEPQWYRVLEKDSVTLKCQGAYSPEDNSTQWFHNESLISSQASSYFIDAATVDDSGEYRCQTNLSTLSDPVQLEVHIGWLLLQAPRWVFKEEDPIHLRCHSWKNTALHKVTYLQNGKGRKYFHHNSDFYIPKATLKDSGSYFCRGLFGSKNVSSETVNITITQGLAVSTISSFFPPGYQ

Row | He_3a/2b (IIIa/IIb) | Binder
47 | 1.21 ratio | B24
48 | 1.95 ratio | B25
49 | 4.29 ratio | B26
50 | 2.47 ratio | B27
51 | 1.64 ratio | B28
52 | 1.21 ratio | B29
53 | 1.33 ratio | B30
54 | 2.21 ratio | B31
55 | 1.38 ratio | B32
56 | 1.27 ratio | B33
57 | 1.25 ratio | B34
58 | 1.72 ratio | B35
59 | 1.31 ratio | B36
60 | 1.29 ratio | B37
61 | 1.25 ratio | B38

Molecular target: T1, FcγRIIa H
Experiment: ratio of He/Con_2aH to He/Con_2b (relative SPR binding to FcγRIIa H over FcγRIIb)

Row | He_2aH/2b (IIaH/IIb) | Binder
62 | 1.91 | B1
63 | 1.47 | B2
64 | 1.36 | B3
65 | 1.25 | B4
66 | 1.25 | B5
67 | 2.53 | B6
68 | 1.2 | B7
69 | 2.52 | B8
70 | 1.53 | B9
71 | 1.37 | B10
72 | 1.28 | B11
73 | 3.61 | B12
74 | 1.53 | B13
75 | 1.2 | B14
76 | 1.94 | B15
77 | 1.45 | B16
78 | 2.52 | B17
79 | 1.31 | B18
80 | 1.28 | B19
81 | 1.46 | B20
82 | 1.25 | B21
83 | 1.49 | B22
84 | 1.2 | B23

Molecular target: T3, FcγRIIb extracellular domain with …
Experiment: SPR, relative to GpH7-A5/GpH7-B3/GpL16-k0

Row | He/Con_2b | Binder
85 | 51.5 control=100 | B24
86 | 19 control=100 | B25
87 | 17.8 control=100 | B27
88 | 35.3 control=100 | B28
89 | 42.9 control=100 | B29
90 | 38.5 control=100 | B30
91 | 39.3 control=100 | B31
92 | 49.9 control=100 | B32
93 | 43.9 control=100 | B33
94 | 45.1 control=100 | B34
95 | 25.2 control=100 | B35
96 | 47.8 control=100 | B36
97 | 44.8 control=100 | B37
98 | 46.7 control=100 | B38

Molecular target: T4, FcγRIIIa extracellular domain with …
Experiment: SPR, relative to GpH7-A5/GpH7-B3/GpL16-k0

Row | He/Con_3a | Binder
99 | 62.2 control=100 | B24
100 | 37.1 control=100 | B25
101 | 41.2 control=100 | B26
102 | 44 control=100 | B27
103 | 57.7 control=100 | B28
104 | 52.1 control=100 | B29
105 | 51.2 control=100 | B30
106 | 87 control=100 | B31
107 | 68.7 control=100 | B32
108 | 55.8 control=100 | B33
109 | 56.6 control=100 | B34
110 | 43.2 control=100 | B35
111 | 62.7 control=100 | B36
112 | 57.8 control=100 | B37
113 | 58.5 control=100 | B38
